Molecular target: T1, 人胃蛋白酶原II HPGII (fitzgerald, 30R-AP039) (human, UniProt P20142 17-388)
T1 construct: Bought antigen; also called PGⅡ; PGC
T1 sequence (looked up): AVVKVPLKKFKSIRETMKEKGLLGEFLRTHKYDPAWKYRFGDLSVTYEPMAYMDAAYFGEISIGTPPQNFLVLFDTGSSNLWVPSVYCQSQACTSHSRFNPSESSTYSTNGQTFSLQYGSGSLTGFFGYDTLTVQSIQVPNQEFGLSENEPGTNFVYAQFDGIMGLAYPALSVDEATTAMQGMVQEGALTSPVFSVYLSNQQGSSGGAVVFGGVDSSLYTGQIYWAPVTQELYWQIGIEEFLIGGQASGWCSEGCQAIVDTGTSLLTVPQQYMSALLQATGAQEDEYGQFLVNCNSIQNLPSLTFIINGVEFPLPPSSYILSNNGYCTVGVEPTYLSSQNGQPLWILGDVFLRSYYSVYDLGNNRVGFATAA
Assay: BLI, AMC sensor, antibody immobilised, HPGII in solution

- Kd: 5.15 nM
- koff: 0.00181 s⁻¹
- kon: 351000 M⁻¹ s⁻¹
B1: Anti-HPG II 11C2 重组抗体 (WT) (antibody, V domains shown)
VH: QIQLVQSGPELKKPGETVKISCKASGYSFTQHGMNWVKQAPGKGLKWMGWINSFTAQPTFADDFRGRFAFSLETSASTAYLQINNLKNEDMATYFCARRGENYIYYYAMDYWGQGTSVTVSS
VL: DVVVTQTPLSLPVSFGDQVSISCRSNQSIAQSYGNTYLSWYLHKPGQSPQLLIYGLSQRFSGVPDRFSGSGSGTDFTLKISTIKPEDLGMYYCLNGSHQPWTFGGGTKLEIK

From patent publication CN111217911A (DONGGUAN PENGZHI BIO TECH CO LTD, dated 2020)
